Experimental findings from patent US20230015291 are described below.

The target in the data set is rabbit skeletal muscle actin protein (Cytoskeleton, Denver, Colo., Catalog #AKL99-A), P68135.

B1: recombinant wild-type human DNase1 (protein)
chain: LKIAAFNIQTFGETKMSNATLVSYIVQILSRYDIALVQEVRDSHLTAVGKLLDNLNQDAPDTYHYVVSEPLGRNSYKERYLFVYRPDQVSAVDSYYYDDGCEPCGNDTFNREPAIVRFFSRFTEVREFAIVPLHAAPGDAVAEIDALYDVYLDVQEKWGLEDVMLMGDFNAGCSYVRPSQWSSIRLWTSPTFQWLIPDSADTTATPTHCAYDRIVVAGMLLRGAVVPDSALPFNFQAAYGLSDQLAQAISDHYPVEVMLK
Consider B1, for which the “nuclease activity, SYTOX Green fluorescence assay (RFU over time), 4.5 nM enzyme with or without 40 ug/ml actin” value is “The nuclease activity of the recombinant human DNase1 was inhibited by actin”.
